Data taken from patent US20250340641A1 (KYMAB, published 2025).
Blank lines part the entries; values can stand above or below the binder they belong to.

What was measured:
[1] = molecular target: T1, human ICOS expressed on the surface of cells (human, UniProt Q9Y6W8 21-199); experiment: flow cytometry on CHO-S cells, purified IgG1
T1 construct: also called hICOS; Human ICOS CHO
T1 sequence: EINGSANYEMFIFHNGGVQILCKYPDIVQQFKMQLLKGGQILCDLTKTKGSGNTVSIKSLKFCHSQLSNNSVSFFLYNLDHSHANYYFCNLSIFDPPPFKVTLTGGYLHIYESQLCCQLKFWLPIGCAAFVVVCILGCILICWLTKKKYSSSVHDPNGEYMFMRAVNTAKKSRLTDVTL

[2] = molecular target: T2, mouse ICOS expressed on the surface of CHO-S cells (mouse, UniProt Q9WVS0 21-200); experiment: flow cytometry on CHO-S cells, purified IgG1
T2 construct: whole, on cells; also called mICOS; Mouse ICOS CHO
T2 sequence (looked up): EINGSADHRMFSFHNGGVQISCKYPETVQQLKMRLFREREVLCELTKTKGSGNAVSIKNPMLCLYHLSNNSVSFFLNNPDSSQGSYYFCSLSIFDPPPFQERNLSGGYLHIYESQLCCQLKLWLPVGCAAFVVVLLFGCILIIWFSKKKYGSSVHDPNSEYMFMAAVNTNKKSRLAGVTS

fold above the average of geomean of the negative control [1]: > 10 fold | fold above the average of geomean of the negative control [2]: > 10 fold
B1: CL-61091 (antibody, V domains shown)
VH: QVQLMQSGTEVKKPGASVKVSCKTSGYTFTTYGITWVRQAPGQGLEWMGWISAYSGDTDYAQKFQGRVTVTTDTSTNTAYMELRSLKSDDTAVYYCARSSGWPHHYGMDVWGQGTTVTVSS
VL: DIVMTQSPLSLPVTPGEPASISCRSSQSLLHSNGFNYFDWYLQKPGQSPQLLIFLVSNRASGVPDRFSGSGSGTDFTLKISRVEAEDVGIYYCMQALQTPLTFGGGTKVEIK

fold above the average of geomean of the negative control [1]: > 10 fold | fold above the average of geomean of the negative control [2]: > 10 fold
B2: CL-74570 (antibody, V domains shown)
VH: EVQLVESGGGVIRPGGSLRLSCAASGFTFDDYGMSWVRQAPGKGLEWVSGINWIGDNTDYADSVKGRFTISRDNAKNSLYLQMNSLRAEDTALYYCARDYFGSGSYYNVPF
VL: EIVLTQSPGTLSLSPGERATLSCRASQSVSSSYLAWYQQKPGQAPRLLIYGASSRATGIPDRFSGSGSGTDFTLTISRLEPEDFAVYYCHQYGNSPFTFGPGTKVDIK
